Measurements as given in publication PMC2841635.

Target: purified tagged Ack1 (HA-tagged Ack1 in methods and Fig. S1B; Myc-tagged Ack1 in the results) (UniProt Q07912)
Experiment: co-IP; in vitro binding assay: 50 nM of purified Ack and AKT in mRLB (25 mM Tris pH 7.5, 175 mM NaCl, 1% Triton X-100, 10% glycerol), 30 mins at room temperature, then anti-Ack1 antibodies and Protein-A-sepharose overnight at 4°C; IB with anti-AKT antibody

Sequence of UniProt Q07912 (Q07912 whole entry): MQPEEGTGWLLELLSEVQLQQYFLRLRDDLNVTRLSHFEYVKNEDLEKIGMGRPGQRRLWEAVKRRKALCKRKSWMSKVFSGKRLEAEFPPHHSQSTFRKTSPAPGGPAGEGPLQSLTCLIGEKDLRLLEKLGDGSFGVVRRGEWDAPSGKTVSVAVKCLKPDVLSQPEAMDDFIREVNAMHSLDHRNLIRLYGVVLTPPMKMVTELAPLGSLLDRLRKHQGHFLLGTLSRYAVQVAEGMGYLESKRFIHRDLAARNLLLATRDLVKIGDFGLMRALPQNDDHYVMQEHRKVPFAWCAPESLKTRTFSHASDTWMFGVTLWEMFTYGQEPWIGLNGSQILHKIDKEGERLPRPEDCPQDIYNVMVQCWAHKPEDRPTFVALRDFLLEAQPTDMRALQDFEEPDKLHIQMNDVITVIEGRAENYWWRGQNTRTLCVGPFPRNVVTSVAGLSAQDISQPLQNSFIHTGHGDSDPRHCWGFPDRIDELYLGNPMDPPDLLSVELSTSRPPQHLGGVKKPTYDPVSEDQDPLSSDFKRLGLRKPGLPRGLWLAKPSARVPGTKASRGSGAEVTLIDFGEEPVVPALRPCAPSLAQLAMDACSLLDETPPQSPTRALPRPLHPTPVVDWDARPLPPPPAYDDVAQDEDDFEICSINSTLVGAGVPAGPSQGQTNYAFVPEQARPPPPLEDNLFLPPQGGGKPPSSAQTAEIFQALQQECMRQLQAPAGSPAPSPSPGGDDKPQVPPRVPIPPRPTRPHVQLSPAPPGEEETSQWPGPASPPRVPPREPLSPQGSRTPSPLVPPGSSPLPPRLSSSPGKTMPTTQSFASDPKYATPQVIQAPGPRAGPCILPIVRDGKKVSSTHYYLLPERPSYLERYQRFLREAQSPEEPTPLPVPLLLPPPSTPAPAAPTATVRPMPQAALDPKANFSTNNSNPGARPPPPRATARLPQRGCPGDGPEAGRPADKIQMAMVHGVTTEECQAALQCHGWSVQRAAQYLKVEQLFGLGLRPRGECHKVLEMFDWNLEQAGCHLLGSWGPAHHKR

Substance: HA-tagged AKT expressed in HEK293T/HEK293 cells (from UniProt P31749 1-480) (enzyme)
- percent of total AKT in complex with Ack1: 6.35%
